Publication PMC6572826, “Native top-down mass spectrometry provides insights into the copper centers of membrane-bound methane monooxygenase” (Nature Communications, 2019)

T1: PmoB subunit of particulate methane monooxygenase from Methylomicrobium alcaliphilum 20Z (20Z-pMMO) (Methylomicrobium alcaliphilum 20Z, UniProt G4SZ64 33-414, methyl-lysine at Lys 36 (~100% stoichiometry))
T1 construct: PmoB subunit of pMMO, Methylomicrobium alcaliphilum 20Z; residues His 33 to Ile 414 after cleavage of the N-terminal signal peptide; theoretical mass 42,147.17 Da; also called 20Z-pMMO PmoB; source: endogenous, Mm. alcaliphilum 20Z membranes, solubilized with DDM, purified by anion exchange chromatography
T1 sequence (looked up): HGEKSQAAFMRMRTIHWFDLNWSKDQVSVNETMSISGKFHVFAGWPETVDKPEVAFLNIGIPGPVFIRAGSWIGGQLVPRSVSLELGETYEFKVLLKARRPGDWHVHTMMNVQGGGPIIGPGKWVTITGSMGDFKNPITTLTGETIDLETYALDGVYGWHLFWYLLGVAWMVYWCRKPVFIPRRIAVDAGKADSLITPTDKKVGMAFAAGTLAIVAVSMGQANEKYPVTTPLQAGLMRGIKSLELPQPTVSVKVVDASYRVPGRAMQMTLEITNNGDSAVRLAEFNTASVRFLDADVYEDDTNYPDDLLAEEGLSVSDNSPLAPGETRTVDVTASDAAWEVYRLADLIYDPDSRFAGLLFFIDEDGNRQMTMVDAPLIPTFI

B1: PmoA subunit of particulate methane monooxygenase from Methylomicrobium alcaliphilum 20Z (20Z-pMMO) (natural protein, UniProt G4SZ63 2-247, looked up)
chain: SASQSAVRSRAEAVKVSRTFDYMILFTVFFVVLGGYHIHYMLTGGDWDFWTDWKDRRLWVTVAPIVSITFPAAVQAVLWWRYRIAWGATLCVLGLLLGEWINRYFNFWGWTYFPVNFVFPSNLMPGAIVLDVILMLSNSMTLTAVVGGLAWGLLFYPGNWPIIAPLHVPVEYNGMMMTLADLQGYHYVRTGTPEYIRMVEKGTLRTFGKDVAPVSAFFSGFVSILIYFLWHFFGSWFGSEKFVQAA
modifications: initiator methionine removed (MetOFF); N-terminal acetylation (NtAc) on the new N-terminus
notes: PmoA subunit of pMMO, Methylomicrobium alcaliphilum 20Z; theoretical mass of the unmodified subunit 28,257.1 Da; found without the initiator methionine and N-terminally acetylated; also called 20Z-pMMO PmoA; source: endogenous, Mm. alcaliphilum 20Z membranes, solubilized with DDM, purified by anion exchange chromatography

Assays:
[1] = molecular target: T1, PmoB subunit of particulate methane …; assay: native MS; pMMO solubilized in DDM, exchanged into 200 mM ammonium acetate, pH 7.2, 0.155% (w/v) Triton X-100; protomer ejected from the micelle (MS^1), then subunits ejected from the protomer by collisional activation (MS^2); conditions: both partners purified
[2] = molecular target: B1; assay: native MS; pMMO in POPC nanodiscs (MSP2N2 or MSP1E3D1), 200 mM ammonium acetate, pH 7.2; subunits ejected from the pMMO-nanodisc complex by CID at the source (MS^2) and fragmented (MS^3); no intact mass of the complex obtained; conditions: both partners purified

Row | binding result [1] | binding result [2] | Binder
1 | binds | binds | PmoC subunit of particulate methane monooxygenase from Methylomicrobium alcaliphilum 20Z (20Z-pMMO), truncated proteoform (natural protein, UniProt G4SZ62 7-250, looked up, PmoC subunit of pMMO, Methylomicrobium alcaliphilum 20Z; the major species is a truncated form without the first six N-terminal residues (MAATTE); theoretical mass of the whole subunit 28,851.4 Da; A minor PmoC species without the initiator methionine and with N-terminal acetylation was also seen from nanodiscs; also called truncated PmoC; 20Z-pMMO PmoC; source: endogenous, Mm. alcaliphilum 20Z …) SVKADAAEAPLLNKKNIIAGASLYLVFYAWVRWYEGVYGWSAGLDSFAPEFETYWMNFLYIEMVLEVLTASVLWGYIWKSRDRKVMSITPREELRRHFTHWTWLMMYGIAIYFGASYFTEQDGTWHQTIVRDTDFTPSHIIEFYLSYPIYIITGGASFLYAKTRLPTYQQGLSLQYLVVVVGPFMILPNVGLNEWGHTFWFMEELFVAPLHYGFVFFGWSALGVLGVINIELGALSKLLKKDLA
2 | binds |  | B1
